Where a chain is given by its changes, count along the chain named. Names and notes keep the numbering of the source. Values belong to the binder of their own block, whether it stands above or below them.
Key:
[1] = target: T1, Recombinant Human DLL4 (R&D Systems Cat#1506-D4/CF) (human, UniProt Q9NR61 27-524); assay: ECL (MSD) binding assay, DLL4 signal divided by blank, repeat experiment
T1 construct: Bought recombinant protein; also called delta-like protein 4; rHuman DLL4

[2] = target: T1, Recombinant Human DLL4 (R&D Systems …); assay: ECL (MSD) binding assay, immobilised DLL4, repeat experiment
[3] = target: T2, rHuman P-Cadherin/Fc Chimera, CF (R&D Systems Cat#861-PC) (human, UniProt P22223 108-654); assay: ECL Multispot (MSD) assay, antigen spotted on plate, 10 nM Fab;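 further: purified Fab bound to antigen spots for 1 h at 20 °C, then TAG detection antibody, electrochemiluminescence compared with each well's blank, ratio of 4 or more marks a hit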
T2 construct: Bought recombinant protein

[4] = target: T3, rHuman IGF-1 sR (insulin-like growth factor-1 soluble receptor), CF (R&D Systems Cat#391-GR) (human, UniProt P08069 31-932); assay: as above
T3 construct: Bought recombinant soluble receptor

[5] = target: T4, rHuman HGF R/c-MET/Fc Chimera, CF (R&D Systems Cat#358-MT/CF) (human, UniProt P08581 25-932); assay: as above
T4 construct: Bought recombinant protein; also called HGF R/Fc

[6] = target: T1, Recombinant Human DLL4 (R&D Systems …); assay: as above
[7] = target: T5, rHuman EGF R/Fc Chimera, CF (R&D Systems Cat#344-ER) (human, UniProt P00533 25-645); assay: as above
T5 construct: Bought recombinant protein

[8] = target: T6, rHuman ErbB2/Fc Chimera, CF (R&D Systems Cat#1129-ER) (human, UniProt P04626 23-652); assay: as above
T6 construct: Bought recombinant protein

[9] = target: T7, Recombinant Human DLL4 (delta-like protein 4) (human, UniProt Q9NR61 27-524); assay: ELISA, DLL4 coated on plate, Fab at 1.3 nM, absorbance at 450 nm
T7 construct: Bought recombinant protein (R&D Systems Cat#1506-D4/CF) coated on the ELISA plate; also called rHuman DLL4; Delta-like 4

[10] = target: T7, Recombinant Human DLL4 (delta-like …); assay: ELISA, DLL4 coated on plate, Fab at 10 nM, absorbance at 450 nm
[11] = target: T7, Recombinant Human DLL4 (delta-like …); assay: ELISA, DLL4 coated on plate, Fab at 0.63 nM, absorbance at 450 nm
[12] = target: T7, Recombinant Human DLL4 (delta-like …); assay: ELISA, DLL4 coated on plate, Fab at 2.5 nM, absorbance at 450 nm
[13] = target: T7, Recombinant Human DLL4 (delta-like …); assay: ELISA, DLL4 coated on plate, Fab at 0.31 nM, absorbance at 450 nm
[14] = target: T7, Recombinant Human DLL4 (delta-like …); assay: ELISA, DLL4 coated on plate, Fab at 0.16 nM, absorbance at 450 nm
[15] = target: T7, Recombinant Human DLL4 (delta-like …); assay: ELISA, DLL4 coated on plate, Fab at 20 nM, absorbance at 450 nm
[16] = target: T7, Recombinant Human DLL4 (delta-like …); assay: ELISA, DLL4 coated on plate, Fab at 5 nM, absorbance at 450 nm
[17] = target: T8, Recombinant Human DLL4 (human, UniProt Q9NR61 27-524); assay: ECL (MSD) multispot binding assay, DLL4 spotted on plate, Fab in solution
T8 construct: also called delta-like protein 4; rHuman DLL4

[18] = target: T9, rHuman IGF-1 sR, CF (R&D Systems Cat#391-GR) (human, UniProt P08069 31-932); assay: ECL multispot (MSD) binding assay; antigen spotted on plate, Fab in solution, Ru-labelled anti-kappa detection;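 further: purified Fab in 1% BSA TBST incubated 1 h at 20 °C with shaking, signal compared with each well's blank, signal/blank ratio of 4 or above counted as binder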
T9 construct: Bought from R&D Systems as a soluble receptor; also called insulin-like growth factor-1 soluble receptor

[19] = target: T10, rHuman EGF R/Fc Chimera, CF (R&D Systems Cat#344-ER) (human, UniProt P00533 25-645); assay: as above
T10 construct: Bought from R&D Systems; also called epidermal growth factor receptor; Fc part of the bought chimera not given

[20] = target: T11, rHuman P-Cadherin/Fc Chimera, CF (R&D Systems Cat#861-PC) (human, UniProt P22223 108-654); assay: as above
T11 construct: Bought from R&D Systems; Fc part of the bought chimera not given

[21] = target: T12, rHuman HGF R/c-MET/Fc Chimera, CF (R&D Systems Cat#358-MT/CF) (human, UniProt P08581 25-932); assay: as above
T12 construct: Bought from R&D Systems; also called HGF R/Fc; hepatocyte growth factor receptor; Fc part of the bought chimera not given

[22] = target: T13, Recombinant Human DLL4 (R&D Systems Cat#1506-D4/CF) (human, UniProt Q9NR61 27-524); assay: as above
T13 construct: Bought from R&D Systems; also called delta-like protein 4; rHuman DLL4

B1: Fab VH1-46_IGHD6-6*01_IGHJ1*01 S102A/S103P/S104F/H111F (APFF) & L6_IGKJ1*01 (Fab, V domains shown)
VH: QVQLVQSGAEVKKPGASVKVSCKASGYTFTSYYMHWVRQAPGQGLEWMGIINPSGGSTSYAQKFQGRVTMTRDTSTSTVYMELSSLRSEDTAVYYCAREEYAPFSAEYFQFWGQGTLVTVSS
VL: not shown
notes: Tested as Fab expressed in E. coli; Heavy chain from Plasmid A (CH1, His6 and Flag tags), kappa light chain from Plasmid C (CL); also called H:APFF & L:wt
Signal/Noise [1]: 694 | ECL signal [2]: 197000 | ECL signal [3]: 347 | ECL signal [4]: 397 | ECL signal [5]: 347 | ECL signal [6]: 78400 | ECL signal [7]: 383 | ECL signal [8]: 354

B2: Fab VH1-46_IGHD6-6*01_IGHJ1*01 S102A/S103P/S104F/H111F/N52L/S54T/G56H (APFF LTH) & L6_IGKJ1*01 (Fab, V domains shown)
VH: B1 VH with N52L, S54T, G56H
VL: not shown
notes: Tested as a Fab made in E. coli: VH cloned into Plasmid A (CH1, His6 and Flag tags), kappa VL into Plasmid C (kappa CL); also called H:APFF LTH & L:wt
ELISA signal [9]: 0.653 | ELISA signal [10]: 2.35 | ELISA signal [11]: 1.37 | ELISA signal [12]: 2.15 | ELISA signal [13]: 2.4 | ELISA signal [14]: 2.35 | ELISA signal [15]: 2.4 | ELISA signal [16]: 2.48

B4: Fab VH1-46_IGHD6-6*01_IGHJ1*01 S102A/S103P/S104F/H111F/I51T/N52L/P53A/S54T/G56H (APFF TLATH) & L6_IGKJ1*01 (Fab, V domains shown)
VH: B1 VH with I51T, N52L, P53A, S54T, G56H
VL: not shown
notes: Tested as a Fab made in E. coli: VH in Plasmid A (CH1, His6 and Flag tags), kappa VL in Plasmid C (kappa CL)
ELISA signal [9]: 0.078 | ELISA signal [10]: 0.875 | ELISA signal [11]: 0.227 | ELISA signal [12]: 0.592 | ELISA signal [13]: 1.11 | ELISA signal [14]: 0.875 | ELISA signal [15]: 1.11 | ELISA signal [16]: 1.27

B6: Fab VH1-46_IGHD6-6*01_IGHJ1*01 S102A/S103P/S104F/H111F (APFF) & L6_IGKJ1*01 W94S (Fab, V domains shown)
VH: B1 VH
VL: EIVLTQSPATLSLSPGERATLSCRASQSVSSYLAWYQQKPGQAPRLLIYDASNRATGIPARFSGSGSGTDFTLTISSLEPEDFAVYYCQQRSNSPPWTFGQGTKVEIKR
notes: Fab from E. coli; VH in Plasmid A (CH1, His6 and Flag tags), VL in Plasmid C (kappa CL); also called APFF & W94S
ECL signal [17]: 109000

B7: Fab VH1-46_IGHD6-6*01_IGHJ1*01 S102A/S103P/S104F/H111F/I51V/N52L/S54T/G56H (APFF VLTH) & L6_IGKJ1*01 (Fab, V domains shown)
VH: B1 VH with I51V, N52L, S54T, G56H
VL: not shown
notes: Tested as a Fab made in E. coli: VH in Plasmid A (CH1, His6 and Flag tags), kappa VL in Plasmid C (kappa CL); also called APPF VLTH
ELISA signal [9]: 0.252 | ELISA signal [10]: 1.85 | ELISA signal [11]: 0.785 | ELISA signal [12]: 1.66 | ELISA signal [13]: 2.05 | ELISA signal [14]: 1.85 | ELISA signal [15]: 2.05 | ELISA signal [16]: 2.2

B10: Fab VH1-46_IGHD6-6*01_IGHJ1*01 S102A/S103P/S104F/H111F (APFF) & L6_IGKJ1*01 W94L (Fab, V domains shown)
VH: B1 VH
VL: B6 VL with S94L
notes: Fab from E. coli; VH in Plasmid A (CH1, His6 and Flag tags), VL in Plasmid C (kappa CL); also called APFF & W94L
ECL signal [17]: 11600

The next lines start with the values.

ELISA signal [9]: 0.055 | ELISA signal [10]: 0.506 | ELISA signal [11]: 0.115 | ELISA signal [12]: 0.358 | ELISA signal [13]: 0.648 | ELISA signal [14]: 0.506 | ELISA signal [15]: 0.648 | ELISA signal [16]: 0.724
B3: Fab VH1-46_IGHD6-6*01_IGHJ1*01 S102A/S103P/S104F/H111F I51T/N52V (APFF I51T/N52V) & L6_IGKJ1*01 (Fab, V domains shown)
VH: B1 VH with I51T, N52V
VL: not shown
notes: as for B4

ELISA signal [9]: 0.402 | ELISA signal [10]: 2.17 | ELISA signal [11]: 1.01 | ELISA signal [12]: 1.98 | ELISA signal [13]: 2.29 | ELISA signal [14]: 2.17 | ELISA signal [15]: 2.29 | ELISA signal [16]: 2.33
B5: Fab VH1-46_IGHD6-6*01_IGHJ1*01 S102A/S103P/S104F/H111F/I51E/N52L/S54T/G56H (APFF ELTH) & L6_IGKJ1*01 (Fab, V domains shown)
VH: B1 VH with I51E, N52L, S54T, G56H
VL: not shown
notes: as for B4

ELISA signal [9]: 0.143 | ELISA signal [10]: 1.36 | ELISA signal [11]: 0.419 | ELISA signal [12]: 1.17 | ELISA signal [13]: 1.63 | ELISA signal [14]: 1.36 | ELISA signal [15]: 1.63 | ELISA signal [16]: 1.75
B8: Fab VH1-46_IGHD6-6*01_IGHJ1*01 S102A/S103P/S104F/H111F/I51N/N52L/S54T/G56H (APFF NLTH) & L6_IGKJ1*01 (Fab, V domains shown)
VH: B1 VH with I51N, N52L, S54T, G56H
VL: not shown
notes: as for B4

ECL signal [17]: 75800
B9: Fab VH1-46_IGHD6-6*01_IGHJ1*01 S102A/S103P/S104F/H111F (APFF) & L6_IGKJ1*01 W94R (Fab, V domains shown)
VH: B1 VH
VL: B6 VL with S94R
notes: Fab from E. coli; VH in Plasmid A (CH1, His6 and Flag tags), VL in Plasmid C (kappa CL); also called APFF & W94R

ECL signal [18]: 439 | ECL signal [19]: 537 | ECL signal [20]: 508 | ECL signal [21]: 512 | ECL signal [22]: 109000
B11: Fab VH1-46_IGHD6-6*01_IGHJ1*01 S102A/S103P/S104F/H111F F29A & L6_IGKJ1*01 (Fab, V domains shown)
VH: B1 VH with F29A
VL: not shown
notes: Tested as a Fab made in E. coli; The heavy chain vector (Plasmid A) adds CH1 with His6 and Flag tags; The light chain vector (Plasmid C) adds kappa CL; also called APFF F29A

ECL signal [17]: 23200
B12: Fab VH1-46_IGHD6-6*01_IGHJ1*01 S102A/S103P/S104F/H111F (APFF) & L6_IGKJ1*01 W94T (Fab, V domains shown)
VH: B1 VH
VL: B6 VL with S94T
notes: Fab from E. coli; VH in Plasmid A (CH1, His6 and Flag tags), VL in Plasmid C (kappa CL); also called APFF & W94T

ECL signal [17]: 33800
B13: Fab VH1-46_IGHD6-6*01_IGHJ1*01 S102A/S103P/S104F/H111F (APFF) & L6_IGKJ1*01 W94M (Fab, V domains shown)
VH: B1 VH
VL: B6 VL with S94M
notes: Fab from E. coli; VH in Plasmid A (CH1, His6 and Flag tags), VL in Plasmid C (kappa CL); also called APFF & W94M
